± gives the standard deviation of the averaged measurements.
System: ATP
Assay: switch fluorescence ratio, 500 uM ATP over buffer (Cy3 cluster intensity, sum of 5 cycles each) (fold (ratio)); higher = stronger signal-on switching upon ATP binding; sequences stand for … in TCGTCGGCAGCGTCAGATGTGTATAAGAGACAGTTTTTTTTTTTTTTTTTTTTTTTTT…TC
Conditions: aptamer strand: ATP DNA aptamer (quencher-CACCTGGGGGAGTATTGCGGAGGAAGG + anchor), 100 nM annealed; ATP concentration: 500 uM
Procedure, shortened: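 The quencher-labelled ATP aptamer, at 100 nM, was annealed to Cy3-labelled switching-strand clusters on a modified Illumina MiSeq flow-cell. The clusters were imaged in selection buffer, then after 15 min with 500 uM ATP at 22 °C, and this buffer/ATP cycle ran five times with NaOH stripping and re-annealing between runs. Per-cluster fluorescence ratios, summed target-cycle over summed buffer-cycle Cy3 intensity, were averaged per switch-domain sequence. Clusters outside 100-1000 RFU were excluded.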
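Also: ATP exposure 15 min at 22 °C before imaging.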

For TGTGCGTCGA, the switch fluorescence ratio was 1.001 ± 0.00055.
For TGTGCTGGTG, the switch fluorescence ratio was 1.039 ± 0.0068.
With TGTGGAGAGC the switch fluorescence ratio was 0.999 ± 0.038.
For TGTGGCAGTT, the switch fluorescence ratio was 1.02 ± 0.027.
TGTGGGACGT gave a switch fluorescence ratio of 0.952 ± 0.01.
TGTGGGATAG was tested, and the switch fluorescence ratio was 0.979 ± 0.029.
With TGTGGGCATT the switch fluorescence ratio was 1.019 ± 0.0053.
Work on TGTGGGGAGC yielded a switch fluorescence ratio of 0.995 ± 0.043.
Work on TGTGGGGGTA yielded a switch fluorescence ratio of 0.986 ± 0.034.
Work on TGTGGGGTAT yielded a switch fluorescence ratio of 1.07 ± 0.045.
With TGTGGGGTCG the switch fluorescence ratio was 1.01 ± 0.058.
For TGTGGGTGTT, the switch fluorescence ratio was 0.961 ± 0.011.
TGTGGGTTAT gave a switch fluorescence ratio of 0.976 ± 0.011.
For TGTGGTAAGT, the switch fluorescence ratio was 1.01 ± 0.062.
Work on TGTGGTAGCG yielded a switch fluorescence ratio of 1.01 ± 0.018.
TGTGGTTGTT was tested, and the switch fluorescence ratio was 1.02 ± 0.041.
For TGTGGTTTCC, the switch fluorescence ratio was 1.01 ± 0.022.
For TGTGGTTTGA, the switch fluorescence ratio was 1.01 ± 0.043.
Work on TGTGTACCGG yielded a switch fluorescence ratio of 1.01 ± 0.028.
TGTGTCTAGT gave a switch fluorescence ratio of 0.974 ± 0.0013.
TGTGTGAATG showed a switch fluorescence ratio of 1.03 ± 0.037.
TGTGTGAGGG was tested, and the switch fluorescence ratio was 1.036 ± 0.0086.
Sequence TGTGTGTAAG has a switch fluorescence ratio of 1.001 ± 0.0067.
Work on TGTGTGTGTG yielded a switch fluorescence ratio of 0.974 ± 0.017.
TGTGTTACTT was tested, and the switch fluorescence ratio was 0.9988 ± 0.001.
For TGTGTTAGG, the switch fluorescence ratio was 1.01 ± 0.03.
In the case of TGTGTTAGTT, the switch fluorescence ratio is reported as 0.991 ± 0.024.
With TGTGTTCCTC the switch fluorescence ratio was 1.08 ± 0.013.
TGTGTTGGTC gave a switch fluorescence ratio of 1.036 ± 0.0032.
In the case of TGTGTTGTGG, the switch fluorescence ratio is reported as 0.997 ± 0.028.
For TGTGTTTCGT, the switch fluorescence ratio was 1.007 ± 0.0084.
For TGTGTTTGGG, the switch fluorescence ratio was 0.987 ± 0.038.
TGTGTTTGGT gave a switch fluorescence ratio of 0.979 ± 0.021.
With TGTTAATAGC the switch fluorescence ratio was 1.03 ± 0.032.
With TGTTACGGCA the switch fluorescence ratio was 1.08 ± 0.041.
With TGTTAGAGGC the switch fluorescence ratio was 1.03 ± 0.1.
For TGTTAGGCAA, the switch fluorescence ratio was 1.06 ± 0.034.
Sequence TGTTAGGTAA has a switch fluorescence ratio of 1.22 ± 0.32.
TGTTAGTGTT gave a switch fluorescence ratio of 1.03 ± 0.029.
In the case of TGTTAGTTCT, the switch fluorescence ratio is reported as 1.02 ± 0.0089.
In the case of TGTTATAATG, the switch fluorescence ratio is reported as 1.03 ± 0.068.
TGTTATGTGC gave a switch fluorescence ratio of 0.968 ± 0.036.
In the case of TGTTATTTTT, the switch fluorescence ratio is reported as 1 ± 0.041.
For TGTTCAAAAC, the switch fluorescence ratio was 1 ± 0.086.
TGTTCAGGTG gave a switch fluorescence ratio of 3.38 ± 0.15.
TGTTCCGCTT was tested, and the switch fluorescence ratio was 2.16 ± 0.17.
TGTTCCGGGT was tested, and the switch fluorescence ratio was 0.999 ± 0.048.
TGTTCGGGTT was tested, and the switch fluorescence ratio was 0.99 ± 0.015.
TGTTCTAGG gave a switch fluorescence ratio of 1.01 ± 0.015.
TGTTCTATAT showed a switch fluorescence ratio of 1.01 ± 0.05.
TGTTCTCGGA gave a switch fluorescence ratio of 1.006 ± 0.0097.
With TGTTCTGCGA the switch fluorescence ratio was 1.43 ± 0.54.
For TGTTGAAGGT, the switch fluorescence ratio was 1.02 ± 0.029.
Sequence TGTTGAATGT has a switch fluorescence ratio of 1.02 ± 0.03.
TGTTGAGGGG gave a switch fluorescence ratio of 0.964 ± 0.041.
Sequence TGTTGAGTGT has a switch fluorescence ratio of 0.962 ± 0.017.
TGTTGATAGG showed a switch fluorescence ratio of 0.982 ± 0.02.
TGTTGATCCT gave a switch fluorescence ratio of 1.03 ± 0.027.
In the case of TGTTGATTGT, the switch fluorescence ratio is reported as 0.983 ± 0.013.
With TGTTGCCACG the switch fluorescence ratio was 1 ± 0.0062.
For TGTTGCCGTT, the switch fluorescence ratio was 0.886 ± 0.057.
TGTTGCCTGG showed a switch fluorescence ratio of 0.978 ± 0.023.
TGTTGCTTAA showed a switch fluorescence ratio of 0.993 ± 0.019.
Sequence TGTTGGGACG has a switch fluorescence ratio of 1.1 ± 0.039.
TGTTGGGACT was tested, and the switch fluorescence ratio was 1.17 ± 0.24.
Sequence TGTTGGGCAG has a switch fluorescence ratio of 0.9634 ± 0.0089.
Work on TGTTGGGGG yielded a switch fluorescence ratio of 0.994 ± 0.062.
With TGTTGGTGC the switch fluorescence ratio was 1.04 ± 0.013.
Sequence TGTTGTAAAG has a switch fluorescence ratio of 0.985 ± 0.03.
For TGTTGTAGAC, the switch fluorescence ratio was 0.961 ± 0.0098.
For TGTTGTATTT, the switch fluorescence ratio was 1.01 ± 0.022.
In the case of TGTTGTCAGG, the switch fluorescence ratio is reported as 0.99 ± 0.025.
In the case of TGTTGTCTTG, the switch fluorescence ratio is reported as 0.98616 ± 6.6e-05.
For TGTTGTCTTT, the switch fluorescence ratio was 1.03 ± 0.12.
With TGTTGTTACA the switch fluorescence ratio was 0.99 ± 0.029.
TGTTGTTGAA was tested, and the switch fluorescence ratio was 1.01 ± 0.042.
TGTTGTTGGT was tested, and the switch fluorescence ratio was 1.017 ± 0.00011.
TGTTGTTGTT was tested, and the switch fluorescence ratio was 1.01 ± 0.086.
With TGTTGTTTAA the switch fluorescence ratio was 1.04 ± 0.086.
TGTTTAAGAG gave a switch fluorescence ratio of 1 ± 0.023.
For TGTTTAGGTT, the switch fluorescence ratio was 1.01 ± 0.071.
TGTTTATCGG gave a switch fluorescence ratio of 0.998 ± 0.041.
For TGTTTCTCGC, the switch fluorescence ratio was 1.05 ± 0.037.
Work on TGTTTCTTTT yielded a switch fluorescence ratio of 1.01 ± 0.024.
Work on TGTTTGAAGG yielded a switch fluorescence ratio of 0.995 ± 0.017.
Work on TGTTTGACAT yielded a switch fluorescence ratio of 0.98 ± 0.02.
In the case of TGTTTGATGG, the switch fluorescence ratio is reported as 1.01 ± 0.038.
With TGTTTGGCTG the switch fluorescence ratio was 1.054 ± 0.0084.
With TGTTTGGGCG the switch fluorescence ratio was 1.03 ± 0.077.
Work on TGTTTGGGGG yielded a switch fluorescence ratio of 1.01 ± 0.036.
Work on TGTTTGGTGC yielded a switch fluorescence ratio of 1.54 ± 0.8.
TGTTTGGTTA gave a switch fluorescence ratio of 0.995 ± 0.017.
In the case of TGTTTGGTTT, the switch fluorescence ratio is reported as 1.01 ± 0.013.
In the case of TGTTTGTAT, the switch fluorescence ratio is reported as 0.9851 ± 0.0015.
For TGTTTGTCTA, the switch fluorescence ratio was 1.01 ± 0.011.
TGTTTGTTGG was tested, and the switch fluorescence ratio was 0.9887 ± 0.009.
For TGTTTGTTTC, the switch fluorescence ratio was 0.973 ± 0.033.
TGTTTTAGAA gave a switch fluorescence ratio of 1.01 ± 0.012.
In the case of TGTTTTAGGC, the switch fluorescence ratio is reported as 0.977 ± 0.02.
In the case of TGTTTTAGGG, the switch fluorescence ratio is reported as 0.993 ± 0.035.

From the supplement of paper PMC10126150
